Results from the supplement of paper PMC7125110.
± gives the standard error. This sample holds only a part of the variants without activity.

B1: glmS ribozyme (parent)
chain: AUAAAAGCGCCAGAACUACAGAAAUGUAGUUGACGAGGAGGAGGUUUAUCGAAUUUUCGGCGGAUGCCUCCAAA

Columns and labels:
Details in all cases: with glucosamine-6-phosphate
glucosamine-6-phosphate [1] = variants of: B1; assay: self-cleavage kobs at 160 uM GlcN6P; higher = faster cleavage; RNA array
Method in brief: (§1)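 Over ~14 h at 37 °C, tiles were imaged as glucosamine-6-phosphate (40 μM to 10 mM) in HEPES/KCl/Mg(OAc)2 buffer flowed across sequenced MiSeq chips. The chips carried barcoded ribozyme variants transcribed in situ by E. coli RNA polymerase and tracked with a hybridised Cy3 probe. After normalisation to baseline and to non-cleaving reference variants, one- or two-exponential decay fits of per-tile medians gave kobs. kcat and KM followed from weighted Michaelis–Menten fits across concentrations.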

glucosamine-6-phosphate [2] = variants of: B1; assay: self-cleavage kobs at 640 uM GlcN6P; higher = faster cleavage; RNA array
Method in brief: as §1

glucosamine-6-phosphate [3] = variants of: B1; assay: self-cleavage kobs at 2500 uM GlcN6P; higher = faster cleavage; RNA array
Method in brief: as §1

glucosamine-6-phosphate [4] = variants of: B1; assay: self-cleavage kobs at 10000 uM GlcN6P; higher = faster cleavage; RNA array
Method in brief: as §1

Row | Variant | self-cleavage kobs at 160 uM GlcN6P (glucosamine-6-phosphate [1]) [s⁻¹] | self-cleavage kobs at 640 uM GlcN6P (glucosamine-6-phosphate [2]) [s⁻¹] | self-cleavage kobs at 2500 uM GlcN6P (glucosamine-6-phosphate [3]) [s⁻¹] | self-cleavage kobs at 10000 uM GlcN6P (glucosamine-6-phosphate [4]) [s⁻¹]
1 | A14C C50G | 5.43e-05 ± 1.5e-05 | 0.000625 ± 0.00028 | 4.32e-05 ± 1.3e-05 | –
2 | C16U G32A G51U | < 1e-05 | – | – | –
3 | C16U G40C C50A C67G | < 1e-05 | < 1e-05 | – | –
4 | G29U G43A C70A | < 1e-05 | – | – | –
5 | A12G A36U C50G A64U C68U | 6.37e-05 ± 2.6e-05 | – | – | –
6 | A14U U45A U46A | 0.00056 ± 0.00015 | – | 0.00178 ± 0.00057 | –
7 | G13C C58G | < 1e-05 | – | – | –
8 | A15C A39U U47A U54G | 4.07e-05 ± 1.7e-05 | 0.000184 ± 4.1e-05 | 0.000635 ± 8.5e-05 | –
9 | A28G U30G C67U C71U | 4.89e-05 ± 2e-05 | 7.62e-05 ± 1.3e-05 | 0.000204 ± 5.3e-05 | –
10 | G29U G32C A36G | < 1e-05 | < 1e-05 | – | –
11 | A14C A36G C58U | < 1e-05 | – | – | –
12 | U31C C58A A64C | < 1e-05 | – | < 1e-05 | –
13 | A14U G29A G63U | < 1e-05 | – | < 1e-05 | –
14 | A15C U31C A39U A42C | < 1e-05 | – | – | –
15 | A12G A42U G59U G63C C71U | < 1e-05 | < 1e-05 | – | –
16 | A14G A39C G40U U46A A53C | < 1e-05 | – | < 1e-05 | –
17 | A14G U31G G41C | < 1e-05 | < 1e-05 | – | 6.26e-05 ± 2.5e-05
18 | A12U C34U A36U U55G | < 1e-05 | < 1e-05 | – | < 1e-05
19 | A14G C58G U69A | 3.98e-05 ± 2e-05 | 8.05e-05 ± 3.6e-05 | 3.74e-05 ± 1.9e-05 | –
20 | C16A G35U G37U U65G | < 1e-05 | < 1e-05 | – | –
21 | C11U U69A | 5.24e-05 ± 1.6e-05 | 0.000191 ± 5.6e-05 | 0.000157 ± 3.2e-05 | 6.31e-05 ± 1.7e-05
22 | A12U G32A G37A U45A | < 1e-05 | – | – | –
23 | G29A G63C C70G | 7.77e-05 ± 3e-05 | 0.000155 ± 4.1e-05 | 7.4e-05 ± 2.1e-05 | –
24 | G29U G32U A64U | < 1e-05 | – | – | –
25 | A12U U30C | 0.000652 ± 0.00019 | 0.00125 ± 0.00032 | 0.0109 ± 0.0027 | –
26 | G13A G40C C70G | < 1e-05 | < 1e-05 | < 1e-05 | < 1e-05
27 | G13A C50G | 0.000122 ± 3.1e-05 | 0.000253 ± 0.00011 | 4.08e-05 ± 1.9e-05 | –
28 | C11U G29U A39C U54A | < 1e-05 | – | – | –

Row | Variant | self-cleavage kobs at 160 uM GlcN6P (glucosamine-6-phosphate [1]) [s⁻¹] | self-cleavage kobs at 640 uM GlcN6P (glucosamine-6-phosphate [2]) [s⁻¹] | self-cleavage kobs at 2500 uM GlcN6P (glucosamine-6-phosphate [3]) [s⁻¹] | self-cleavage kobs at 10000 uM GlcN6P (glucosamine-6-phosphate [4]) [s⁻¹]
29 | U30C G32U C34G C50G | 7.22e-05 ± 2.9e-05 | 8.64e-05 ± 3.3e-05 | 9.31e-05 ± 2.4e-05 | –
30 | A15C G35U C70U | < 1e-05 | – | – | –
31 | A12G G13A U45C U49C C50A A52C A53U G66U | < 1e-05 | – | < 1e-05 | –
32 | A12G A52U G66U | < 1e-05 | < 1e-05 | – | –
33 | G29A A33G | < 1e-05 | < 1e-05 | < 1e-05 | < 1e-05
34 | C16A G29C C58U | < 1e-05 | – | – | –
35 | A15G G41U G62U | < 1e-05 | < 1e-05 | < 1e-05 | –
36 | G13U G29A G66C | < 1e-05 | – | – | –
37 | G13U C34G | < 1e-05 | < 1e-05 | < 1e-05 | < 1e-05
38 | C11U G32C A42G G59U | < 1e-05 | – | < 1e-05 | –
39 | C16A G41A U56G | < 1e-05 | < 1e-05 | – | –
40 | A14C A23C G43C | < 1e-05 | < 1e-05 | < 1e-05 | –
41 | A14U G43U U46A | < 1e-05 | < 1e-05 | < 1e-05 | –
42 | A12U C58A G60U | < 1e-05 | < 1e-05 | – | –
43 | A15U A39C C58A C70G | < 1e-05 | – | – | –
44 | G29C U31C A33C A36C A53U | < 1e-05 | – | < 1e-05 | –
45 | A14U G43U G51C | < 1e-05 | – | – | –
46 | A12U U46C C67A | 0.00011 ± 2.6e-05 | – | 0.00113 ± 0.0002 | –
47 | G13A A42U | < 1e-05 | < 1e-05 | – | –
48 | C16U C58U | < 1e-05 | – | 2.45e-05 ± 6.4e-06 | 9.48e-05 ± 8.5e-06
49 | G13A G35U G66U C67G | < 1e-05 | – | < 1e-05 | –
50 | C16U U31A G43U A52U | < 1e-05 | < 1e-05 | < 1e-05 | –
51 | G29A G40C U55A U56G C67U | < 1e-05 | < 1e-05 | < 1e-05 | –
52 | A12G G35C | < 1e-05 | < 1e-05 | – | < 1e-05
53 | A28G C70A | 0.000126 ± 3.7e-05 | 6.33e-05 ± 2.1e-05 | 0.000497 ± 0.00012 | –
54 | A14C A36C U65G | < 1e-05 | < 1e-05 | < 1e-05 | –
55 | A12U U56G G66C | 0.000132 ± 3.1e-05 | 0.000374 ± 9e-05 | 0.000708 ± 0.00017 | –
